Paper doi:10.1101/856021 (2019)

Target: Jil-1 peptide 984-1004 F989A (Drosophila, UniProt Q9V3I5 984-994, F989A)
Test: ITC

Kd: 122 µM
B1: dP75 IBD-containing C-terminus region (residues 209-445) (domain or fragment)
chain: AAVTPIQKRSRPVNNIRNEMLMVYMPTAKCLGIVINYKKPESFESAAAEEAWMENARKEALELKLKLESGQINPESMPDRIVVEPTRSEIPKQEALRFIEELIEHEDALFMERDFIQLSQQLRECLGLRRANVGKCLEILEQFKEVEFTKLMLLRNPECVDIMRRLRRYVGNLELWKMDLSDEVEFKERAQTIRKVSSGIYDGFKSLFNPEPESEDNFWIDFCEKVKIYKTYTKNIN
